According to publication PMC5428041, “Dynamic equilibrium on DNA defines transcriptional regulation of a multidrug binding transcriptional repressor, LmrR”:

Target: T1, LmrR (Lactococcus lactis, UniProt A2RI36 1-116)
T1 sequence: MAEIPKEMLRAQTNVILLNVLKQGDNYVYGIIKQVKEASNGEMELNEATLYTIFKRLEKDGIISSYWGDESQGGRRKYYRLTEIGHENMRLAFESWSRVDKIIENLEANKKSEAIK
Experiment: ITC; apo; 2 LmrR dimers per DNA; 10 mM NaPi pH 6.8, 100 mM NaCl, 25 C (ITC; same buffer for NMR); 5% DMSO in riboflavin titrations
Details: protein: recombinant; tags: C-terminal His6; chain copies: 4

B1: lmrCD operator 33 bp (dsDNA)
DNA 1: CAATTTAATGTAAAGTAGTTTACATTATTTAAC
DNA 2: GTTAAATAATGTAAACTACTTTACATTAAATTG
For B1, the Kd was 64 ± 22 nM.
